Experimental data from publication PMC5177531.

What was measured:
[1] = molecular target: T1, 6TM/E11 mu opioid receptor site 6TM variant (Mus musculus), P42866; test: competition; details: modification not given
T1 chain: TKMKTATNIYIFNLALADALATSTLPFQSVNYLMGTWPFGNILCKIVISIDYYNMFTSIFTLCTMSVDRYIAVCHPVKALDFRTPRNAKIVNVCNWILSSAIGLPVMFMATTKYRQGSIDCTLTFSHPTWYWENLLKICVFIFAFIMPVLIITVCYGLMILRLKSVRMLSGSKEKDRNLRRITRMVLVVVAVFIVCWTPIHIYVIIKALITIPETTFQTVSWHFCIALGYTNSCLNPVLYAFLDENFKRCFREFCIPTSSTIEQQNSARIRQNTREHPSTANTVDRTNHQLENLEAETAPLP

[2] = molecular target: mMOR-1 (Mus musculus), P42866; test: competition; details: modification not given
Sequence of mMOR-1 (Mus musculus), P42866 (P42866 whole entry): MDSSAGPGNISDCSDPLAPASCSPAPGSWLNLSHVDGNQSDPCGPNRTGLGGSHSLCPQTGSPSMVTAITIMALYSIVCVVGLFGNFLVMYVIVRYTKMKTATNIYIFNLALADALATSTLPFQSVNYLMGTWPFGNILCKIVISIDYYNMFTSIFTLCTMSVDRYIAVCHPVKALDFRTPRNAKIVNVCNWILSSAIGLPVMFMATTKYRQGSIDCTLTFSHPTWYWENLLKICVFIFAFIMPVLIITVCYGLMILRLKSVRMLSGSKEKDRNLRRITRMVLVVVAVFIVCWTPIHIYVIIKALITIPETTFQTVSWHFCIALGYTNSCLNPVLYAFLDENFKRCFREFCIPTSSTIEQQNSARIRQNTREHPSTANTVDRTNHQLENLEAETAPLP

For YAFGYPS [Dermorphin], the Ki [1] was greater than 500 nM and the Ki [2] was 4 nM.
